# T1: WT-PaHisGS (Psychrobacter arcticus ATP phosphoribosyltransferase catalytic subunit HisGS) (Psychrobacter arcticus, UniProt Q4FQF7 1-231)
# T1 chain: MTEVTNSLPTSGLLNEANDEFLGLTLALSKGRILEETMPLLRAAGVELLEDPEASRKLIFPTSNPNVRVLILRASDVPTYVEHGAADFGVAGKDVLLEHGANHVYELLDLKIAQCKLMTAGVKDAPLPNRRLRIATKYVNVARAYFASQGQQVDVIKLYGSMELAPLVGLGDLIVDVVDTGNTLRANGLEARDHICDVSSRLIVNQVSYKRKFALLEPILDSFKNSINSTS
# T2: R56A-PaHisGS (Psychrobacter arcticus, UniProt Q4FQF7 1-231, R56A)
# T2 sequence: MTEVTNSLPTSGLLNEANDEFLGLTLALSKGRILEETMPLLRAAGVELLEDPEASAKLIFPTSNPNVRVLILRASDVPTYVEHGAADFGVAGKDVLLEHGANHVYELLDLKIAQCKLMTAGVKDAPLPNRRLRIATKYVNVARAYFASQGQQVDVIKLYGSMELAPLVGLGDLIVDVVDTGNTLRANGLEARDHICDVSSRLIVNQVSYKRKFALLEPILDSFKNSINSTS
# T3: R32A-PaHisGS (Psychrobacter arcticus, UniProt Q4FQF7 1-231, R32A)
# T3 sequence: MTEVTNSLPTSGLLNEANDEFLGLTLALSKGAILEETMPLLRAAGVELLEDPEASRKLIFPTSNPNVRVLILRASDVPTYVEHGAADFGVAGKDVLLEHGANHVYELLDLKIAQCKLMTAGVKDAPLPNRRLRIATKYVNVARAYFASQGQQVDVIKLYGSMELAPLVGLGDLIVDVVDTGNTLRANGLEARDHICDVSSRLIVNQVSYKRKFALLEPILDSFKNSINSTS
# T4: R56K-PaHisGS (Psychrobacter arcticus, UniProt Q4FQF7 1-231, R56K)
# T4 sequence: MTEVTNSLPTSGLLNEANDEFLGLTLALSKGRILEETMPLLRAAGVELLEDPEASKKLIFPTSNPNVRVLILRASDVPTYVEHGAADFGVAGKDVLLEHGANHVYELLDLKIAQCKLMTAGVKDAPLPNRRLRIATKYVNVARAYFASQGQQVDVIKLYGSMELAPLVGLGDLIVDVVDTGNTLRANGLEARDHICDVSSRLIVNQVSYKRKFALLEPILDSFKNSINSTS
# B1: PaHisZ (Psychrobacter arcticus ATP phosphoribosyltransferase regulatory protein HisZ) (natural protein)
# chain: MLPDGVADVLFEDAHKQEVLRHQLTQQLITHGYQLVSPPMIEFTESLLSGASEDLKRQTFKIIDQLTGRLMGIRADITPQILRIDAHHGGDGIARYCYAGDVIHTLPSGLFGSRTPLQLGAEIFGCESIAADIELIDVLFSMINSLDMSAVLHVDLGHVTIFKRLAELAALSASDTEQLMQLYANKNLPELKQVCQVLPMGSDFYTLARFGHDIANLLGRLSENAQQDTKIVTAIDELQRLKAHLQVQWQCAVSIDVTELSGYHYHTGIVFNGYINSETQPLVRGGRFDGMKSNQLATNQPRQATGFSMDVSRLLAHTQLDAPFIVLIDYDAFNNLDSAQRQLLLQQVASLRQQGYRVTMPLTAEDMPVGLTHRLSLADNQWRLHAV
# notes: HisZ, regulatory subunit of short-form ATP phosphoribosyltransferase, Psychrobacter arcticus; also called WT-PaHisZ
# B2: R56A-PaHisGS (enzyme, Psychrobacter arcticus)
# chain: MTEVTNSLPTSGLLNEANDEFLGLTLALSKGRILEETMPLLRAAGVELLEDPEASAKLIFPTSNPNVRVLILRASDVPTYVEHGAADFGVAGKDVLLEHGANHVYELLDLKIAQCKLMTAGVKDAPLPNRRLRIATKYVNVARAYFASQGQQVDVIKLYGSMELAPLVGLGDLIVDVVDTGNTLRANGLEARDHICDVSSRLIVNQVSYKRKFALLEPILDSFKNSINSTS
# notes: HisGS, Psychrobacter arcticus, with R56A; made from the WT-PaHisGS expression vector
# B3: R56A/K57A-PaHisGS (enzyme, Psychrobacter arcticus)
# chain: MTEVTNSLPTSGLLNEANDEFLGLTLALSKGRILEETMPLLRAAGVELLEDPEASAALIFPTSNPNVRVLILRASDVPTYVEHGAADFGVAGKDVLLEHGANHVYELLDLKIAQCKLMTAGVKDAPLPNRRLRIATKYVNVARAYFASQGQQVDVIKLYGSMELAPLVGLGDLIVDVVDTGNTLRANGLEARDHICDVSSRLIVNQVSYKRKFALLEPILDSFKNSINSTS
# notes: HisGS, Psychrobacter arcticus, with R56A and K57A; made from the WT-PaHisGS expression vector
# B4: WT-PaHisGS (Psychrobacter arcticus ATP phosphoribosyltransferase catalytic subunit HisGS) (enzyme)
# chain: MTEVTNSLPTSGLLNEANDEFLGLTLALSKGRILEETMPLLRAAGVELLEDPEASRKLIFPTSNPNVRVLILRASDVPTYVEHGAADFGVAGKDVLLEHGANHVYELLDLKIAQCKLMTAGVKDAPLPNRRLRIATKYVNVARAYFASQGQQVDVIKLYGSMELAPLVGLGDLIVDVVDTGNTLRANGLEARDHICDVSSRLIVNQVSYKRKFALLEPILDSFKNSINSTS
# notes: HisGS, catalytic subunit of short-form ATP phosphoribosyltransferase, Psychrobacter arcticus
# B5: C115S-PaHisGS (enzyme, Psychrobacter arcticus)
# chain: MTEVTNSLPTSGLLNEANDEFLGLTLALSKGRILEETMPLLRAAGVELLEDPEASRKLIFPTSNPNVRVLILRASDVPTYVEHGAADFGVAGKDVLLEHGANHVYELLDLKIAQSKLMTAGVKDAPLPNRRLRIATKYVNVARAYFASQGQQVDVIKLYGSMELAPLVGLGDLIVDVVDTGNTLRANGLEARDHICDVSSRLIVNQVSYKRKFALLEPILDSFKNSINSTS
# notes: HisGS, Psychrobacter arcticus, with C115S; made from the WT-PaHisGS expression vector
# B6: R32A-PaHisGS (enzyme, Psychrobacter arcticus)
# chain: MTEVTNSLPTSGLLNEANDEFLGLTLALSKGAILEETMPLLRAAGVELLEDPEASRKLIFPTSNPNVRVLILRASDVPTYVEHGAADFGVAGKDVLLEHGANHVYELLDLKIAQCKLMTAGVKDAPLPNRRLRIATKYVNVARAYFASQGQQVDVIKLYGSMELAPLVGLGDLIVDVVDTGNTLRANGLEARDHICDVSSRLIVNQVSYKRKFALLEPILDSFKNSINSTS
# notes: HisGS, Psychrobacter arcticus, with R32A; made from the WT-PaHisGS expression vector
# Tests used:
# [1] = target: R56A-PaHisGS (Psychrobacter arcticus) (UniProt Q4FQF7)
# [2] = target: WT-PaHisGS (Psychrobacter arcticus ATP phosphoribosyltransferase catalytic subunit HisGS) (Psychrobacter arcticus) (UniProt Q4FQF7)
# [3] = target: WT-PaHisGS (Psychrobacter arcticus ATP phosphoribosyltransferase catalytic subunit HisGS) (Psychrobacter arcticus) (UniProt Q4FQF7); test: enzyme activity titration (initial rate against HisZ concentration); apparent KD; fixed PaHisGS variant, HisZ (PaHisZ, His-tagged PaHisZ or AbHisZ) varied; initial velocities at 20 °C in 100 mM tricine, 100 mM KCl, 15 mM MgCl2, 4 mM DTT, pH 8.5, 5.6 mM ATP, 2 mM PRPP; fit to Eq. (3), or to Eq. (5) for R56A-PaHisGS with AbHisZ
# C115S-PaHisGS = target: B5; test: cell-based or functional assay
# R56A-PaHisGS [4] = target: B2; test: cell-based or functional assay
# R56A/K57A-PaHisGS = target: B3; test: cell-based or functional assay
# R32A-PaHisGS [5] = target: B6; test: cell-based or functional assay
# [6] = target: B4; test: cell-based or functional assay
# [7] = target: T1, WT-PaHisGS (Psychrobacter arcticus ATP …)
# R56A-PaHisGS [8] = target: T2, R56A-PaHisGS
# R32A-PaHisGS [9] = target: T3, R32A-PaHisGS
# R56K-PaHisGS = target: T4, R56K-PaHisGS; test: cell-based or functional assay
# [10] = target: the molecule itself; test: crystal structure; R56A-PaATPPRT (R56A-PaHisGS with PaHisZ) crystals soaked in PRPP and ATP; molecular replacement with PDB 6FU2
# [11] = target: B1; test: enzyme activity titration (initial rate against HisZ concentration); apparent KD; fixed PaHisGS variant, HisZ (PaHisZ, His-tagged PaHisZ or AbHisZ) varied; initial velocities at 20 °C in 100 mM tricine, 100 mM KCl, 15 mM MgCl2, 4 mM DTT, pH 8.5, 5.6 mM ATP, 2 mM PRPP; fit to Eq. (3), or to Eq. (5) for R56A-PaHisGS with AbHisZ; settings: both partners purified
# [12] = target: AbHisZ (Acinetobacter baumannii HisZ); test: enzyme activity titration (initial rate against HisZ concentration); apparent KD; fixed PaHisGS variant, HisZ (PaHisZ, His-tagged PaHisZ or AbHisZ) varied; initial velocities at 20 °C in 100 mM tricine, 100 mM KCl, 15 mM MgCl2, 4 mM DTT, pH 8.5, 5.6 mM ATP, 2 mM PRPP; fit to Eq. (3), or to …; settings: other: enzyme activity titration (initial rate against HisZ concentration)
# [13] = target: the molecule itself; test: SEC; Superdex 200 10/300 GL, 4 °C, 20 mM HEPES pH 8.0; 1 mg/mL protein pre-incubated with 2 mM DTT
molecule,measurement,setting,value
AbHisZ (Acinetobacter baumannii HisZ) (natural protein),apparent kcat of the R56A-PaHisGS/AbHisZ hybrid complex,[1],0.22 s⁻¹
same,apparent kcat of the WT-PaHisGS/AbHisZ hybrid complex,[2],1.49 s⁻¹
same,Kd,[3],9000 nM
B1,Activation by PaHisZ: ratio of kcat of PaATPPRT variant to v/ET of the PaHisGS mutant alone,C115S-PaHisGS,1860 fold
same,Activation by PaHisZ: ratio of kcat of PaATPPRT variant to v/ET of the PaHisGS mutant alone,R56A-PaHisGS [4],250 fold
same,Activation by PaHisZ: ratio of kcat of PaATPPRT variant to v/ET of the PaHisGS mutant alone,R56A/K57A-PaHisGS,521 fold
same,Activation by PaHisZ: ratio of kcat of PaATPPRT variant to v/ET of the PaHisGS mutant alone,R32A-PaHisGS [5],208 fold
same,Activation by PaHisZ: ratio of kcat of PaATPPRT to v/ET of PaHisGS alone,[6],29 fold
same,Kd,[7],60 nM
same,Kd,R56A-PaHisGS [8],200 nM
same,Kd,R32A-PaHisGS [9],30 nM
same,activation of the R56K-PaHisGS (6 µM) reaction rate by PaHisZ (20 µM),R56K-PaHisGS,~11 fold
same,binding result,[10],binds
B2,Kd,[11],4000 nM
same,"K0.5 (concentration of AbHisZ at the inflection point, Eq. 5)",[12],8.1 ± 0.4 µM
same,stoichiometry N,[13],2
B3,Kd,[11],5000 nM
same,stoichiometry N,[13],2
B4,Kd,[11],440 nM
same,stoichiometry N,[13],2
B5,Kd,[11],1700 nM
same,stoichiometry N,[13],2
B6,Kd,[11],490 nM
same,stoichiometry N,[13],2

# From article PMC9734150, “Allosteric rescue of catalytically impaired ATP phosphoribosyltransferase variants links protein dynamics to active-site electrostatic preorganisation” (Nature Communications, 2022)
